Results from patent US20240092930A1.

How the values were obtained:
[1] = target: human Trop-2 on the surface of cells (CHO/Trop-2 cells; BxPC-3 cells; NCI-N87 cells) (human) (UniProt P09758); assay: cell-based or functional assay
[2] = target: human Trop-2 on the surface of cells (CHO/Trop-2 cells; BxPC-3 cells; NCI-N87 cells) (human) (UniProt P09758); assay: FACS, BxPC cells, antibody left on the surface after 3 h at 37° C.
[3] = target: human Trop-2 on the surface of cells (CHO/Trop-2 cells; BxPC-3 cells; NCI-N87 cells) (human) (UniProt P09758); assay: FACS, BxPC cells, antibody left on the surface, control kept at 4° C.

human Trop-2 on the surface of cells (CHO/Trop-2 cells; BxPC-3 cells; NCI-N87 cells) (human), sequence (P09758 27-323): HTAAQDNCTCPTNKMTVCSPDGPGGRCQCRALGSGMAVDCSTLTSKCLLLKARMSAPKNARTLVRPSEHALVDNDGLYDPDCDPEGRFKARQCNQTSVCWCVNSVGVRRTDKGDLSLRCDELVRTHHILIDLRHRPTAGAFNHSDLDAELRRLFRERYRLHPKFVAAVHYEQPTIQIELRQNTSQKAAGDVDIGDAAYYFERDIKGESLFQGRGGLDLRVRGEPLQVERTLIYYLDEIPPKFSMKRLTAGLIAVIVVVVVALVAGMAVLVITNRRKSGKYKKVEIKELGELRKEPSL

- Internalization percentage (%), 3 h, BxPC cells, FACS [1]: 3.29%
- Internalization percentage, 1 h, BXPC-3 cells, FACS [1]: -63%
- Internalization percentage, 1 h, NCI-N87 cells, FACS [1]: -95%
- Fluorescence intensity (MFI), 37° C. [2]: 715 MFI
- Fluorescence intensity (MFI), 4° C. [3]: 739 MFI
Substance: IgG1 isotype control antibody NC-IgG1
